Results published in publication PMC5832301.

Target: UDP-glucose pyrophosphorylase from sugarcane (ScUGPase-1) (sugarcane (Saccharum spp. hybrids))
Assay: SEC-MALS; sample of the larger oligomeric form peak; Superdex 200 increase 5/150, room temperature, 2.0 mg/mL, 20 mM Tris/HCl pH 8.0, 20 mM NaCl

stoichiometry N: 8
Substance: UDP-glucose pyrophosphorylase from sugarcane (ScUGPase-1) (from UniProt A0A075E2Q1 1-476) (enzyme)
